Key:
Conditions in all cases: both partners purified
[1] = molecular target: T1, 6xHIS-GluTR1 (glutamyl-tRNA reductase 1) (Arabidopsis, UniProt P42804 62-543); assay: MST; as a3 with addition of 1 µM hemin
T1 construct: glutamyl-tRNA reductase 1 (GluTR1), Arabidopsis, encoded by HEMA1; Czarnecki et al., 2011; Wang et al., 2018; source: E. coli BL21, purified (Ni-NTA)
T1 sequence (looked up): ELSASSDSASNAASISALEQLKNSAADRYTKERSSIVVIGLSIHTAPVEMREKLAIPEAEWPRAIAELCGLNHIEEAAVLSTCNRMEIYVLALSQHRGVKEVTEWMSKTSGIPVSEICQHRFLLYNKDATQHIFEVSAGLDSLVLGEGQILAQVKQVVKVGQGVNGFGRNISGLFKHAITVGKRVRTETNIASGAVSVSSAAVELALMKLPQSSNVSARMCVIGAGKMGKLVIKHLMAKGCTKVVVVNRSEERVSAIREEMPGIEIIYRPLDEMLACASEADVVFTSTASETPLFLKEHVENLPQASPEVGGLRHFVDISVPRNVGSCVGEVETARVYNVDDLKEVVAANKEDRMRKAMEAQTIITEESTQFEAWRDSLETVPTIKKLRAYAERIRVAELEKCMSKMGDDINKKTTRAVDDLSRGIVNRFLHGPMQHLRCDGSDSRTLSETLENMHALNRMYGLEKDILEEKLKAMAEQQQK

[2] = molecular target: T1, 6xHIS-GluTR1 (glutamyl-tRNA reductase 1); assay: MST; 200 nM labeled 6xHIS-GBP-FLUO constant, 6xHIS-GluTR1 titrated from 7.5 µM, PBS, Monolith NT.115; Kd from initial fluorescence quenching; no hemin; n = 2
[3] = molecular target: T2, 6xHIS-GluTR1-FLUO (fluorophore-labeled 6xHIS-GluTR1) (Arabidopsis, UniProt P42804 62-543, fluorophore from the RED-NHS (Amine Reactive) protein labeling kit (second generation)); assay: MST; 200 nM labeled 6xHIS-GluTR1-FLUO constant, 6xHIS-GBP titrated from 7.5 µM, PBS, Monolith NT.115; MST signal 1.5 s after turning on the laser; no hemin; n = 2
T2 construct: glutamyl-tRNA reductase 1 (GluTR1), Arabidopsis, encoded by HEMA1; same construct as m1, labeled; m1 after amine-reactive labelling; also called labeled HIS-GluTR; source: E. coli BL21, purified (Ni-NTA), labeled with the RED-NHS protein labeling kit
T2 sequence (looked up): T1 sequence (looked up)

[4] = molecular target: T2, 6xHIS-GluTR1-FLUO (fluorophore-labeled …); assay: MST; as a5 with addition of 1 µM hemin

B1: 6xHIS-GBP-FLUO (fluorophore-labeled 6xHIS-GBP) (natural protein, Arabidopsis, UniProt Q9LU39 43-317, looked up)
chain: SVSTTLDTPATASTHKPFPAEVSRSIMELSSVGTLSTLTHDGWPLGVGVRFAVDKDGTPVLCLNRSVSPDKRSALHVQLEQCGLRTPQCTIQGSIGRPGDDTVLKRLSATWREKFGEEVKEDSLYVVAVDRVLQMEDFMEDGIWVASSDYKNASPDPLRDIAEDIVNQINANNMEDIFRFCNVYVDLDFVVSETKMIWMDRLGFDLRVWSPRGVYDVRIPFPMEVTDEKGAKSSFNGMSQLAWEVEKSYCPADFNKVKLLKQVVGSSHSHKGGGQ
modifications: fluorophore from the RED-NHS (Amine Reactive) protein labeling kit (second generation)
notes: same construct as m3, labeled; m3 after amine-reactive labelling; also called labeled HIS-GBP; labeled GBP; source: E. coli BL21, purified (Ni-NTA), labeled with the RED-NHS protein labeling kit
B1 showed a Kd [1] of 931 nM and a Kd [2] of 65 nM.

B2: 6xHIS-GBP (GluTR-binding protein) (natural protein, Arabidopsis, UniProt Q9LU39 43-317, looked up)
chain: B1 chain
notes: Czarnecki et al., 2011; Wang et al., 2018; probably without the transit peptide; source: E. coli BL21, purified (Ni-NTA)
B2 was tested, and the Kd [3] was 113 nM and the Kd [4] was 806 nM.

Reference: publication PMC6597238, “The GluTR-binding protein is the heme-binding factor for feedback control of glutamyl-tRNA reductase” (eLife, 2019)
